Test system: CCL-2
Experiment: Multiplex analysis, radiotherapy, TR146
Assay type: cell-based, human
Experimental: Oral buccal mucosal cells (TR146) cells were incubated overnight at 37° C. in 5% CO2 incubator. […] The cells were then stimulated with 5-FU (10 mM) for another 24h for chemotherapy and with gamma radiation (3.5 kGy) using Cobalt 60 for radiotherapy. After 24 h, cell culture supernatants were collected from each well and stored at −20° C. till multiplex analysis. For NF-kB estimations, cell lysates were prepared. Levels of biomarkers were estimated using Magpix® multiplex machine. The cells treated with Amifostine (along with 5-FU or radiation) were considered as positive control (PC). Untreated cells (5-FU or radiation alone treated) were used as negative control (NC).
The percent modulation in each sample was determined as follows:
[{Concentration of biomarkers (pg/ml) in Control cells (5-FU or radiation alone treated)−Concentration of biomarkers (pg/ml) in SEQ ID NO: 2+5-FU or radiation treated cells)}/Concentration of biomarkers (pg/ml) in Control cells (5-FU or radiation alone treated)]*100

B1: SEQ ID NO 2: recombinant lectin, variant of the S. rolfsii lectin amino acid sequence (reported as Rec-2 in WO 2010/095143) (protein)
chain: TYKITVRVYQTNPDAFFHPVEKTVWKYANGGTWTITDDQHVLTMGGSGTSGTLRFHADNGESFTATFGVHNYKRWCDIVTNLAADETGMVINQQYYSQKNREEARERQLSNYQVKNAKGRNFQIVYTEAEGNDLHANLIIG
0.01 μg/ml + Radiation (3.5 kGy)
  Percentage Inhibition CCL-2: 0.1%
0.1 μg/ml + Radiation (3.5 kGy)
  Percentage Inhibition CCL-2: 23.1%
1 μg/ml + Radiation (3.5 kGy)
  Percentage Inhibition CCL-2: 23.1%
10 μg/ml + Radiation (3.5 kGy)
  Percentage Inhibition CCL-2: 23.1%
25 μg/ml + Radiation (3.5 kGy)
  Percentage Inhibition CCL-2: 0%
radiation, in words
  CCL-2 against radiation induced levels: downregulation
